# Results as given in patent publication US20240238380A1 (YUHAN, published 2024).
# Target: GFRAL/RET overexpressed on HEK293 cells (GFRAL/RET/SRE-luc-overexpressing HEK293 cell line) (UniProt Q6UXV0 19-394; P07949 29-1114, limits assumed)
# Assay: cell-based or functional assay
# Sequence of GFRAL/RET overexpressed on HEK293 cells (GFRAL/RET/SRE-luc-overexpressing HEK293 cell line) (Q6UXV0 19-394 limits assumed, chain 1 of 2): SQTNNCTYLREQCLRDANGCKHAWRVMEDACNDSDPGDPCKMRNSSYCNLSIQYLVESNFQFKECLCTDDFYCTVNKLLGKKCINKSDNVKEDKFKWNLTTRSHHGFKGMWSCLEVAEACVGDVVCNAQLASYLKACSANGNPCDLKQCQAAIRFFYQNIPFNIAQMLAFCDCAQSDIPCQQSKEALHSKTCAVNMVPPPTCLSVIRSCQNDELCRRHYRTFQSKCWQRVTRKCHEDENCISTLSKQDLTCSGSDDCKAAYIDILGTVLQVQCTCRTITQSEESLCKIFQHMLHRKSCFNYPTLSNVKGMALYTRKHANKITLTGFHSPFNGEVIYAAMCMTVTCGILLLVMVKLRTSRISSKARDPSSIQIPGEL
# Sequence of GFRAL/RET overexpressed on HEK293 cells (GFRAL/RET/SRE-luc-overexpressing HEK293 cell line) (P07949 29-1114 limits assumed, chain 2 of 2): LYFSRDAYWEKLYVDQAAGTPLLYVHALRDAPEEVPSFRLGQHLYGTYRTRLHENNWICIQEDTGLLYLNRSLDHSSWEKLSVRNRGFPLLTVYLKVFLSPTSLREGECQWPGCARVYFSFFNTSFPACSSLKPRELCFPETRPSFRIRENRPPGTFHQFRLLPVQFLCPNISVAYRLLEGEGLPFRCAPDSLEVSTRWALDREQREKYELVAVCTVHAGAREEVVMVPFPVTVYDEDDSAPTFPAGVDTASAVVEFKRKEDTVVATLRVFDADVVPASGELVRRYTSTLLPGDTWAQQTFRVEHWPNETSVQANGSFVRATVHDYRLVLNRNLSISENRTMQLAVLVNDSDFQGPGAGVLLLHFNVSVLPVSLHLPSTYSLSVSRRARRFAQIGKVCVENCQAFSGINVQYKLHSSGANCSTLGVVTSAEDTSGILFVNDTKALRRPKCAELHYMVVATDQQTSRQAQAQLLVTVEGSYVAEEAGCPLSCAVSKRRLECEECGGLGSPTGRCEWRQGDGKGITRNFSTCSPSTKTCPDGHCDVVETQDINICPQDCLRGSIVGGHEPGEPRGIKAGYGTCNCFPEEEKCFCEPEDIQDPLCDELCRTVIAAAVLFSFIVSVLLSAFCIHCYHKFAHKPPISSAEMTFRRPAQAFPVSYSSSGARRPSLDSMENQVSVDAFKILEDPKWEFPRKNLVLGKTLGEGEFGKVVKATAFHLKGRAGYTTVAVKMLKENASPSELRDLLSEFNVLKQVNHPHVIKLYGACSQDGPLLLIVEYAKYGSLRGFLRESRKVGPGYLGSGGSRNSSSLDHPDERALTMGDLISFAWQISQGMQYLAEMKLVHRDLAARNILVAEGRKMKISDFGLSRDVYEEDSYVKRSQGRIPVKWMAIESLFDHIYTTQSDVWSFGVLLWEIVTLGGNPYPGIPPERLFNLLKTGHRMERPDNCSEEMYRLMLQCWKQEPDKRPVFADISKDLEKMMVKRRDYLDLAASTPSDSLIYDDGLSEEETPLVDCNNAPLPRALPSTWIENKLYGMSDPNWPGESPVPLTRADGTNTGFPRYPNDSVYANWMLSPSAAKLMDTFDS
"EC50 (nM), SRE-luciferase reporter (RLU) [nM]","Emax (%), SRE-luciferase reporter (RLU), relative to FM9-6+Fc_hole [%]",Binder
9.5,111,FM9-2 + Fc_hole long-acting GDF15 fusion protein (dimer) (Fc fusion) chain 1: APEAAGGPSVFLFPPKPKDTLMISRTPEVTCVVVDVSHEDPEVKFNWYVDGVEVHNAKTKPREEQYASTYRVVSVLTVLHQDWLNGKEYKCKVSNKALPAPIEKTISKAKGQPREPQVYTLPPSREEMTKNQVSLWCLVKGFYPSDIAVEWESNGQPENNYKTTPPVLDSDGSFFLYSKLTVDKSRWQQGNVFSCSVMHEALHNHYTQKSLSLSPGKGSGGGGSGGGGSGGGGSGGGGSGGGGSNGDHCPLGPGRCCRLHTVRASLEDLGWADWVLSPREVQVTMCIGACPSQFRAANMHAQIKTRLHRLKPDTVPAPCCVPASYNPMVLIQKTDTGVSLQTYDDLLAKDCHCI chain 2: APEAAGGPSVFLFPPKPKDTLMISRTPEVTCVVVDVSHEDPEVKFNWYVDGVEVHNAKTKPREEQYASTYRVVSVLTVLHQDWLNGKEYKCKVSNKALPAPIEKTISKAKGQPREPQVYTLPPSREEMTKNQVSLSCAVKGFYPSDIAVEWESNGQPENNYKTTPPVLDSDGSFFLVSKLTVDKSRWQQGNVFSCSVMHEALHNHYTQKSLSLSPGK
23.6,128,FM9-4 + Fc_hole long-acting GDF15 fusion protein (dimer) (Fc fusion) chain 1: APEAAGGPSVFLFPPKPKDTLMISRTPEVTCVVVDVSHEDPEVKFNWYVDGVEVHNAKTKPREEQYASTYRVVSVLTVLHQDWLNGKEYKCKVSNKALPAPIEKTISKAKGQPREPQVYTLPPSREEMTKNQVSLWCLVKGFYPSDIAVEWESNGQPENNYKTTPPVLDSDGSFFLYSKLTVDKSRWQQGNVFSCSVMHEALHNHYTQKSLSLSPGKGSEEEAEEEAEEEAEEEAEEEAEEEANGDHCPLGPGRCCRLHTVRASLEDLGWADWVLSPREVQVTMCIGACPSQFRAANMHAQIKTRLHRLKPDTVPAPCCVPASYNPMVLIQKTDTGVSLQTYDDLLAKDCHCI chain 2: APEAAGGPSVFLFPPKPKDTLMISRTPEVTCVVVDVSHEDPEVKFNWYVDGVEVHNAKTKPREEQYASTYRVVSVLTVLHQDWLNGKEYKCKVSNKALPAPIEKTISKAKGQPREPQVYTLPPSREEMTKNQVSLSCAVKGFYPSDIAVEWESNGQPENNYKTTPPVLDSDGSFFLVSKLTVDKSRWQQGNVFSCSVMHEALHNHYTQKSLSLSPGK
9.3,95.6,FM9-3 + Fc_hole long-acting GDF15 fusion protein (dimer) (Fc fusion) chain 1: APEAAGGPSVFLFPPKPKDTLMISRTPEVTCVVVDVSHEDPEVKFNWYVDGVEVHNAKTKPREEQYASTYRVVSVLTVLHQDWLNGKEYKCKVSNKALPAPIEKTISKAKGQPREPQVYTLPPSREEMTKNQVSLWCLVKGFYPSDIAVEWESNGQPENNYKTTPPVLDSDGSFFLYSKLTVDKSRWQQGNVFSCSVMHEALHNHYTQKSLSLSPGKGSGGGGSGGGGSGGGGSGGGGSGGGGSGGGGSGGGGSNGDHCPLGPGRCCRLHTVRASLEDLGWADWVLSPREVQVTMCIGACPSQFRAANMHAQIKTRLHRLKPDTVPAPCCVPASYNPMVLIQKTDTGVSLQTYDDLLAKDCHCI chain 2: APEAAGGPSVFLFPPKPKDTLMISRTPEVTCVVVDVSHEDPEVKFNWYVDGVEVHNAKTKPREEQYASTYRVVSVLTVLHQDWLNGKEYKCKVSNKALPAPIEKTISKAKGQPREPQVYTLPPSREEMTKNQVSLSCAVKGFYPSDIAVEWESNGQPENNYKTTPPVLDSDGSFFLVSKLTVDKSRWQQGNVFSCSVMHEALHNHYTQKSLSLSPGK
